# Entries after “also recorded” stand apart in the source; their conditions may differ. Read-outs that look alike come from different tables or passages of the source.
# B1: IFNγ: interferon-γ cytokine used to prime macrophages (BioLegend 575302) (protein, UniProt P01580 23-155, looked up)
# Interferon gamma: HGTVIESLESLNNYFNSSGIDVEEKSLFLDIWRNWQKDGDMKILQSQIISFYLRLFEVLKDNQAISNNISVIESHLITTFFSNSKAKKDAFMSIAKFEVNNPQVQRQAFNELIRVVHQLLPESSLRKRKRSRC
# B2: IL-4: interleukin-4 cytokine used to prime macrophages (BioLegend 574302) (protein, UniProt P07750 21-140, looked up)
# Interleukin-4: HIHGCDKNHLREIIGILNEVTGEGTPCTEMDVPNVLTATKNTTESELVCRASKVLRIFYLKHGKTPCLKKNSSVLMELQRLFRAFRCLDSSISCTMNESKSTSLKDFLESLKSIMQMDYS
# Tests used:
# [1] = target: CD47 on B16-F10 mouse melanoma cells (also on RM-9 mouse prostate cancer cells) (mouse) (UniProt Q61735); experiment: flow cytometry titration on B16 cells, secondary antibody AF647, median fluorescence fit to y=A*x/(K+x); apparent K on cells
# B16 tumoroids = type: cell-based, mouse
# Method: (§1) Tumoroids. To generate surfaces conducive to B16 tumoroid formation, 96-well plates (Greiner Bio-One 650161) were either coated with 70 μL of 2% agarose in water or PBS or, more commonly, treated for 20 min with 100 μL of anti-adherence rinsing solution (StemCell Technologies 07010). The wells were washed with PBS, and then blocked with 0.5-1% (w/v) bovine serum albumin (BSA, Sigma) 37° ° C. for 1 h. B16 were detached by brief trypsinization, resuspended in RPMI supplemented with 10% FBS, 1× non-essential amino acid solution (Gibco 11140050) and 1 mM sodium pyruvate (Gibco 11360070) at a concentration of 1×103 or 1×10^4 per mL, and added to passivated wells in a volume of 100 μL. […] For tumoroid disaggregation studies, EDTA and EGTA were added in PBS to obtain a final concentration of 2 mM, and in some cases magnesium sulphate was also added for a final concentration of 5 mM Mg2+. Latrunculin A (Invitrogen L12370) dissolved at 1 μM in DMSO was further diluted in PBS and added to obtain a final concentration of 1 μM. For phagocytosis versus growth studies, CellTracker Deep Red-labeled BMDMs and antibodies (final concentration 20 μg/mL anti-Tyrp1 and/or 20 μg/mL anti-CD47 or 10 μg/mL anti-SIRPα) or mouse serum (final concentration 1:200) were added 24 h later in a volume of 20 μL RPMI growth media with 120 ng/mL M-CSF. For myosin-II inhibition studies, 20 μM blebbistatin (MilliporeSigma 203389) or an equal volume of DMSO vehicle was added to B16 tumoroids for 1 h prior to addition of BMDMs. Tumoroids were imaged on the Olympus IX microscope with 20×/0.4 NA, 10×/0.3 NA, or 4×/0.13 NA objectives. Tumoroid areas were measured in Fiji/ImageJ after thresholding GFP fluorescence using built-in thresholding algorithms and manually adjusting the threshold as needed.
# [2] = system: macrophages in CD47 KO tumoroids; experiment: Macrophage clustering in tumoroids (entropy image analysis, radial profiles, cluster area); type: cell-based, mouse; settings: 2 mM chelator added ~24 h after macrophages and anti-Tyrp1, read 3 h later
# Method: as §1, with “For phagocytosis versus growth studies, CellTracker Deep Red-labeled BMDMs and antibodies (final concentration 20 μg/mL anti-Tyrp1 and/or 20 μg/mL anti-CD47 or 10 μg/mL anti-SIRPα) or mouse serum (final concentration 1:200) were added 24 h later in a volume of 20 μL RPMI growth media with 120 ng/mL M-CSF. For myosin-II inhibition studies, 20 μM blebbistatin (MilliporeSigma 203389) or an equal volume of DMSO vehicle was added to B16 tumoroids for 1 h prior to addition of BMDMs. Tumoroids were imaged on the Olympus IX microscope with 20×/0.4 NA, 10×/0.3 NA, or 4×/0.13 NA objectives.” left out
# [3] = target: Tyrp1 (tyrosinase-related protein 1) on B16-F10 mouse melanoma cells (mouse) (UniProt P07147); experiment: flow cytometry titration on B16 cells, secondary antibody AF647, median fluorescence fit to y=A*x/(K+x); apparent K on cells
# CD47 KO B16 tumoroids = experiment: Immuno-tumoroid growth with bone marrow-derived macrophages; type: cell-based, mouse; settings: for tumoroid elimination and macrophage clusters: macrophages pre-treated with cytokine (20 ng/mL, 48 h)
# Method: Tumoroids. To generate surfaces conducive to B16 tumoroid formation, 96-well plates (Greiner Bio-One 650161) were either coated with 70 μL of 2% agarose in water or PBS or, more commonly, treated for 20 min with 100 μL of anti-adherence rinsing solution (StemCell Technologies 07010). The wells were washed with PBS, and then blocked with 0.5-1% (w/v) bovine serum albumin (BSA, Sigma) 37° ° C. for 1 h. B16 were detached by brief trypsinization, resuspended in RPMI supplemented with 10% FBS, 1× non-essential amino acid solution (Gibco 11140050) and 1 mM sodium pyruvate (Gibco 11360070) at a concentration of 1×103 or 1×10^4 per mL, and added to passivated wells in a volume of 100 μL. A single aggregate of B16 cells formed in each well, typically within 12 h. For tumoroid disaggregation studies, EDTA and EGTA were added in PBS to obtain a final concentration of 2 mM, and in some cases magnesium sulphate was also added for a final concentration of 5 mM Mg2+. Latrunculin A (Invitrogen L12370) dissolved at 1 μM in DMSO was further diluted in PBS and added to obtain a final concentration of 1 μM. For phagocytosis versus growth studies, CellTracker Deep Red-labeled BMDMs and antibodies (final concentration 20 μg/mL anti-Tyrp1 and/or 20 μg/mL anti-CD47 or 10 μg/mL anti-SIRPα) or mouse serum (final concentration 1:200) were added 24 h later in a volume of 20 μL RPMI growth media with 120 ng/mL M-CSF. For myosin-II inhibition studies, 20 μM blebbistatin (MilliporeSigma 203389) or an equal volume of DMSO vehicle was added to B16 tumoroids for 1 h prior to addition of BMDMs. Tumoroids were imaged on the Olympus IX microscope with 20×/0.4 NA, 10×/0.3 NA, or 4×/0.13 NA objectives. Tumoroid areas were measured in Fiji/ImageJ after thresholding GFP fluorescence using built-in thresholding algorithms and manually adjusting the threshold as needed.
# Statistical analysis and curve fitting. Statistical analyses and curve fitting were performed in Prism v8.4-v9.4 (GraphPad) and MATLAB R2020a (MathWorks). Details for each analysis are provided in figure legends, and exact p values are provided. […]
# macrophage monocultures = experiment: Macrophage monocultures on non-adhesive surfaces, clustering; type: cell-based, mouse; settings: 20 ng/mL cytokine
# Method: Bone marrow-derived macrophages (BMDMs). Bone marrow was harvested from donor mice, lysed with ACK buffer (Gibco A1049201) to deplete red blood cells, and cultured on Petri dishes for 7 days in IMDM (Gibco 12440053) supplemented with 10% FBS, 1% P/S, and 20 ng/ml recombinant mouse macrophage colony-stimulating factor (M-CSF, BioLegend 576406). Successful differentiation was confirmed by flow cytometry staining with antibodies against macrophage markers. Cytokine-primed BMDMs were cultured in RPMI growth media+20 ng/ml M-CSF+20 ng/mL IFNγ (BioLegend 575302) or 20 ng/ml IL-4 (BioLegend 574302) for 48 h prior to use in tumoroid assays or prior to analysis of protein expression by flow cytometry. […]
# Entropy image analysis. Fluorescence images of CellTracker Deep Red-labeled macrophages were converted to binary images of black cells on a white background using the Otsu threshold algorithm in ImageJ. The number of dark pixels was determined from the image histogram, and the image was saved as a PNG file, which is a form of lossless file compression to determine the compressed file size as a measure of entropy. Random and structured images were generated and analyzed using the Python NumPy and PIL/Pillow packages, respectively.
# [4] = 2 mM EDTA or EGTA, 1 μM Latrunculin A
# Sequence of UniProt P07147 (P07147 25-537): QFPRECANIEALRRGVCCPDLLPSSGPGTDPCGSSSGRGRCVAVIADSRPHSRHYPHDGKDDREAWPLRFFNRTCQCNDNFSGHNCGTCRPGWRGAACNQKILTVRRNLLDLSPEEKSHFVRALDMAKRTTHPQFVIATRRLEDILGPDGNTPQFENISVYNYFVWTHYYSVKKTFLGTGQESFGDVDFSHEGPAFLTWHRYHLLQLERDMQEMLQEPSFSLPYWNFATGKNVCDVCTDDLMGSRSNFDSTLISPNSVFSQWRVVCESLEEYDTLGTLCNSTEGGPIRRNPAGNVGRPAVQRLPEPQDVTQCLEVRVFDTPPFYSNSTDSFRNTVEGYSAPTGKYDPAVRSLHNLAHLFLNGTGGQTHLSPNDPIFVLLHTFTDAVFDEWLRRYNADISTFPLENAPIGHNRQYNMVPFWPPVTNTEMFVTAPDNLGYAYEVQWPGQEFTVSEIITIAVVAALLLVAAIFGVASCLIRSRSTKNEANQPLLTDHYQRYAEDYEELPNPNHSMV
# Sequence of UniProt Q61735 (Q61735 19-303): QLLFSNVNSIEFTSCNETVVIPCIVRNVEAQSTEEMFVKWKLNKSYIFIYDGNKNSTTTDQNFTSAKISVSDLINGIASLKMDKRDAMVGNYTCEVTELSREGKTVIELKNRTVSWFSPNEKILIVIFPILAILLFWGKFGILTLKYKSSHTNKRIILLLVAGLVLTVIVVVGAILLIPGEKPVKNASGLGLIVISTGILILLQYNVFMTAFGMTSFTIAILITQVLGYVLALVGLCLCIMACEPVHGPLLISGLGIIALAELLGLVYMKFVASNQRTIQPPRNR
molecule,measurement,setting,value
anti-mouse CD47 clone MIAP301 (BioXCell BE0270) (antibody),Kd,[1],25 nM
C/C1=C/C(=O)O[C@@H]2C[C@@H](CC[C@H](C)/C=C\C=C\CC1)O[C@@](O)([C@@H]1CSC(=O)N1)C2 [Latrunculin A],tumoroid projected area / B16 aggregates,B16 tumoroids; [4],rapid (<1 h) increase
O=C(O)CN(CCOCCOCCN(CC(=O)O)CC(=O)O)CC(=O)O [EGTA],tumoroid projected area / B16 aggregates,B16 tumoroids; [4],did disrupt B16 aggregates; also recorded: rapid (<1 h) increase
O=C(O)CN(CCN(CC(=O)O)CC(=O)O)CC(=O)O [EDTA],macrophage cluster projected area / disaggregation of macrophages,[2],rapid disaggregation of macrophages; also recorded: increases significantly
same,tumoroid projected area / B16 aggregates,B16 tumoroids,rapid (<1 h) increase
anti-mouse/human Tyrp1 clone TA99 (BioXCell BE0151) (antibody),Kd,[3],47 nM
Cc1ccc2c(c1)C(=O)C1(O)CCN(c3ccccc3)C1=N2 (centres unmarked) [blebbistatin],tumoroid growth repression by macrophages,CD47 KO B16 tumoroids; 20 μM,not affected
B1,macrophage clustering in monoculture,macrophage monocultures,cluster
same,tumoroid elimination and macrophage clusters,CD47 KO B16 tumoroids,promoted
B2,macrophage clustering in monoculture,macrophage monocultures,disperse
same,tumoroid elimination and macrophage clusters,CD47 KO B16 tumoroids,has the opposite effects and disperses macrophages

# Source: patent US20240216425A1, “Engineered Macrophages for Cancer Immunotherapy” (The Trustees of the University of Pennsylvania, priority 2022, published 2024)
